In publication PMC2151178 one finds stoichiometry N data, which are given here for 1 substance.

The target of the assay is DdUnc104 (Dictyostelium Unc104), 245-kD kinesin (Dictyostelium discoideum (endogenous in wild-type cells)) (UniProt Q9NGQ2). The assay can be described thus: SEC + other: sucrose density gradient velocity sedimentation.

With “DdUnc104 (Dictyostelium Unc104), 245-kD kinesin, Q9NGQ2 1-2205”, the stoichiometry N amounted to 2.

In general, stoichiometry N refers to the number of molecules, sites or subunits per partner or assembly.
